From patent US8912148B2, “Methods of treating a disease or condition associated with abnormal angiogenesis” (Covx Technology Ireland, Ltd., priority 2006, dated 2014)
Starred links: 1 amine or outer side, 2 acyl side, 3 side chain; linkers in the order of their positions; H or OH if unused. Non-standard residues stand in square brackets, D forms with d. No end group written: not given here. Phe(4-COOH) = N[C@@H](Cc1ccc(C(=O)O)cc1)C(=O)O; AcK = CC(=O)NCCCC[C@H](N[*:1])C(=O)[*:2]; 0P = not defined here

Experiments:
[1] = target: T1, human angiopoietin-2 protein (Homo sapiens, UniProt O15123); experiment: Competitive ELISA: inhibition of Ang-2-Tie-2 binding, plates coated with Ang-2 (Table 7)
T1 construct: purchased R&D Systems
T1 sequence (O15123 19-496): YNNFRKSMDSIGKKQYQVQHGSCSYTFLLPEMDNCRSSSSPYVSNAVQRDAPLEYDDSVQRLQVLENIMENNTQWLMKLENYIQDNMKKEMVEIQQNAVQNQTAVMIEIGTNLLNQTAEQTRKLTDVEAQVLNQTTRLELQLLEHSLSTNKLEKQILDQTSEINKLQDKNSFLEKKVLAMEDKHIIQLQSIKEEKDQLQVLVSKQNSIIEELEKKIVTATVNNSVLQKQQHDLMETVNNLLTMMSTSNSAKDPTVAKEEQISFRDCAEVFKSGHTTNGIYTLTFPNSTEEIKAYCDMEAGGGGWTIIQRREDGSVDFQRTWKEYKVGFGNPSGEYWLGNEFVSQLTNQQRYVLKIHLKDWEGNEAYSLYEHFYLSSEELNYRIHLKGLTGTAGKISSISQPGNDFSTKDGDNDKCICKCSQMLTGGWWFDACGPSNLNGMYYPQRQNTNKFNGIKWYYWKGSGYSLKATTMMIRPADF
Experimental: The ability of Ang-2 binding compounds to interact with Ang-2 was measured by competition with Tie-2.
For competitive ELISA, human angiopoietin-2 protein and Tie-2-Fc (R&D Systems) were reconstituted without carrier protein. Mouse anti-human Tie-2 (Pharmingen) was used as the primary antibody and goat anti-mouse-IgG1-HRP (Pierce) was used as the secondary antibody. TMB substrate from Pierce was used.
High-binding half-well plates were coated with Ang-2 (100 ng/well) in 50 μl PBS and incubated at 4° C. overnight. Plates were washed three times with washing buffer (0.1% Tween 20, PBS, pH 7.4) and blocked with Superblock (Scytek), 100 μl/well at room temperature (“RT”) for 1 hour. After removing the blocking solution, 50 μl of an Ang-2 binding peptide compound (1 uM and 5× serial dilution) in the presence of 0.25 nM hTie-2-Fc using Superblock as diluent was added and incubated at RT for 2 hours. Plates were washed 3 times with washing buffer. Then, 50 ul of 0.1 ug/ml mouse anti-human Tie-2 diluted in Superblock added and incubated at RT for 1 hour. Following incubation, 50 ul of 1:5,000 dilution of goat anti-mouse IgG-HRP in Superblock was then added and incubated at RT for one hour. After washing 3 times, 50 μl (25 μl TMB+25 μl H2O2) was added, and incubated for 3-5 minutes. Color development was monitored and stopped with 25 μl of 2 M H2SO4. OD450 nm with a correction wavelength of 540 nm was measured.
In Table 7, compounds of SEQ ID NOs: 21-23 are Ang-2 binding peptides alone, not conjugated to either a linker or linker-antibody; compounds of SEQ ID NOs:65 and 66 are Ang-2 binding peptides conjugated to a linker-antibody, where the linker is 4P (“4” PEG) and has the structure of the linker shown in FIG. 2; and compounds 26-63 are Ang-2 binding peptides conjugated to a linker-antibody, where the linker is OP (“O” PEG) and has the structure of the linker shown in FIG. 3. Compounds 24-63 were conjugated to humanized aldolase antibody h38c2 and the linker structures shown in FIG. 2 (4P) and FIG. 3 (OP) when obtainng the data shown below, except where otherwise indicated.
In Table 7, amino acid sequences of peptide compounds are shown with the position of linker OP or 4P indicated in parentheses following the internal amino acid residue to which the linker is attached. For compound of SEQ ID NO:67, the N-terminal “OP” linker is indicated at the beginning of the peptide sequence.

[2] = target: T2, Recombinant human Ang-2 (Homo sapiens, UniProt O15123); experiment: Truncation study: competition with compound 43 linked to linker and h38c2 for binding to coated Ang-2 (Table 9); conditions: competition with compound 43-linker-h38c2 at 10 ng/mL, read-out: Ang-2 T IC50
T2 sequence (O15123 19-496): T1 sequence (O15123 19-496)
Experimental: Recombinant human Ang-2 was coated on microtiter plates at 0.5 μg/mL in 100 μL, overnight at 2-8° C. Plates were washed between all steps and all subsequent incubations occurred at room temperature. Plates were blocked with 250 μL per well of SuperBlock for 1-3 hours. Test compounds were pre-mixed with compound 43 linked to linker (as shown in FIG. 3) and h38c2 at 10 ng/mL. Peptide mixtures in 100 μL were then added at the listed final concentrations, the plates sealed, and incubated for 1-2 hours. Bound compound 43 was detected with 100 μL of a 1:20,000 dilution of HRP-labeled anti-human IgG reagent for 1-2 hours. Finally, 100 μL TMB substrate was added for 10 minutes and the reaction stopped with 100 μL of 2 NH2SO4 stop solution.

[3] = target: T1, human angiopoietin-2 protein; experiment: Reverse competition ELISA: inhibition of Ang-2-Tie-2 binding, plates coated with Tie-2-Fc (Table 8); conditions: reverse competitive ELISA; peptide linked to antibody h38c2 via 0P linker
Experimental: For reverse competition ELISA, human Tie-2-Fc, angiopoietin-2 protein, biotinylated anti-human Ang-2 antibody, and streptavidin HRP(R&D Systems) and TMB substrate from Pierce were used.
High-binding half-well plates were coated with Tie-2-Fc (50 ng/well) in 50 μl PBS and incubated at 4° C. overnight. Plates were washed three times with washing buffer (0.1% Tween 20, PBS, pH 7.4) and blocked with Superblock, 150 μl/well at RT for 1 hour. Plates were washed three times. Following washing, 50 μl of an Ang-2 binding peptide compound (50 nM, 5× serial dilution) in the presence of 50 ng/ml (0.83 nM) Ang-2 in Superblock were added and incubated at RT for 1 hour. Plates were washed 3 times, 50 μl of 1 μg/mlbiotinylated anti-Ang-2 detection antibody in Superblock was added and incubated at RT for 2 hours. Plates were washed 3 times, and 50 μl of streptavidin HRP (1:200 dilution in Superblock) was added at RT for 20 minutes. Plates were washed 3 times, and 50 μl (25 μl TMB+25 μl H2O2) substrate solution was added and incubated for 20-30 minutes. Color development was stopped with 25 μl of 2 M H2SO4. OD450 nm with a correction wavelength of 540 nm was measured.
IC50 values are provided for the targeting peptide plus linker (as shown in FIG. 3) and the targeting peptide linked to an antibody (P) via the linker of FIG. 3, unless otherwise specified.

[4] = tested on: Co10205 cells; experiment: Xenograft studies: subcutaneous tumor growth in nude mice, % T/C (Table 10); assay type: in vivo
Experimental: Co10205 cells were cultured with 10% FBS RPMI medium and 3×10^6 cells in 0.1 ml Hank's balanced salt solution (HBSS) were injected subcutaneously into the upper right flank of nude mice. After 7-9 days, animals were randomized into appropriate number of groups with average tumor size of 200-300 mm^3. Mice were then treated with the requisite amount of compounds of the invention and tumor volumes were measured twice a week. Animals were terminated once their average tumor volume reached 2000 mm^3. Upon termination, tumors were weighed and saved for further histological studies. Treatment efficacy was evaluated by measuring the difference in the tumor volumes of treated versus control groups. Results are reported as % T/C, where % T/C was calculated as: % T/C=(Vt−V0)/(Ct−C0)×100, where, V0 and Vt were the average tumor volumes of treated groups at the beginning and termination of the group. CO and Ct were the average tumor volumes of the control group at the beginning and termination of the group (Table 10).

[5] = P = targeting peptide linked to antibody h38c2 via the linker, read-out: Ang-2 P IC50
[6] = T = targeting peptide plus linker (compounds 21-23: peptide alone), read-out: Ang-2 T IC50

Row | IC50 [1, 5] [nM] | Substance | further results
1 | 153 | 36 (QXYQPLDELDXTIYDQFMLQQG; AcK; K(0P) modified lysine; Anti-angiogenic peptide) [Compound 36] | –
2 | – | 90 (Ac-PLDEK(Ac)DK(0P)TLYDQFMLQQG-NH2; reading uncertain; also: 0P linker on K7, reactive end group for antibody) [Compound 90] | IC50 [2]: > 4000 nM
3 | – | 89 (Ac-QPLDE[AcK]DK(0P)TLYDQFMLQQG-NH2; reading uncertain; also: 0P linker on K8, reactive end group for antibody) [Compound 89] | IC50 [2]: > 4000 nM
4 | 703 | 38 (QXYQPLDELDXTXYDQFMLQQG; not fully specified; AcK; K(0P); homocyclohexylalanine; Anti-angiogenic peptide) [Compound 38] | IC50 [1, 6]: > 5000 nM
5 | 358 | 40 (QXYQPLDELDXTXYDQFMLQQG; AcK; K(0P); thienylalanine; Anti-angiogenic peptide) [Compound 40] | IC50 [1, 6]: > 5000 nM
6 | 40.5 | 25: "compounds of SEQ ID NOs:65 and 66 are Ang-2 binding peptides conjugated to a linker-antibody, where the linker is 4P (“4” PEG)" (QNYQPLDELDXTLYDQFMLQQG; 4P PEG linker conjugated to antibody; Anti-angiogenic peptide) [Compound 25] | –
7 | 28.6 | R^1-QNY QPL DEL DKT LYD QFM LQQ G-R^2 (QNYQPLDELDKTLYDQFMLQQG; also: variable termini R1, R2) [Compound 28] | IC50 [1, 6]: 175 nM; IC50 [3]: 0.15 nM; % TC 3 mg/kg 1×/wk ([4]; 3 mg/kg 1×/wk): 34%; % TC 10 mg/kg 1×/wk ([4]; 10 mg/kg 1×/wk): 38%
8 | 17.4 | QAcKY QPL DEL DK(4P)T LYD QFM LQQ G (QXYQPLDELDXTLYDQFMLQQG; not fully specified; acetyl-lysine; 4P PEG linker to antibody at K11; Anti-angiogenic peptide) [Compound 24, "the second amino acid residue is epsilon acyl lysine ... the linking position (in this case a 4P linker) is the lysine residue 11"] | –
9 | 88.8 | 33 (Q[AcK]YQPLDEK(0P)DETLYDQFMLQQG; reading uncertain) [Compound 33] | –
10 | 18.1 | (Amido 2-PEG)QAcKY QPL DEL DK(OP)T LYD QFMLQQ G (QXYQPLDELDXTLYDQFMLQQG; amido-2-PEG cap; acetyl-lysine; OP linker at K11; Anti-angiogenic peptide) [Compound 52] | –
11 | 14.4 | 60 (QHYQPLDELDXTLYDQFMLQQG; not fully specified; K(0P) modified lysine; Anti-angiogenic peptide) [Compound 60] | –
12 | 80 | 37 (QXYQPLDEIDXTLYDQFMLQQG; AcK; K(0P) modified lysine; Anti-angiogenic peptide) [Compound 37] | –
13 | > 1000 | 31 (Q[AcK]YQPLDELDETK(0P)YDQFMLQQG; reading uncertain; also: printed as Q(AcK)Y QPL DEL DET K(0P)YD QFM LQQ G) [Compound 31] | IC50 [1, 6]: > 5000 nM
14 | – | 87 (Ac-[AcK]YQPLDE[AcK]DK(0P)TLYDQFMLQQG-NH2; reading uncertain; also: 0P linker on K10, reactive end group for antibody) [Compound 87] | IC50 [2]: > 4000 nM
15 | 16.1 | 59 (QRYQPLDELDXTLYDQFMLQQG; K(0P) modified lysine; Anti-angiogenic peptide) [Compound 59] | –
16 | – | 88 (Ac-YQPLDE[AcK]DK(0P)TLYDQFMLQQG-NH2; reading uncertain; also: 0P linker on K9, reactive end group for antibody) [Compound 88] | IC50 [2]: > 4000 nM
17 | 258 | 39 (QXYQPLDELDXTXYDQFMLQQG; AcK; K(0P); homophenylalanine; Anti-angiogenic peptide) [Compound 39] | –
18 | 41.3 | 62 (Q[AcK]YQPLDE[AcK]DK(0P)TL[Phe(4-COOH)]DQFMLQQG; not fully specified (C-terminus); reading uncertain; also: 0P linker on K11, antibody h38c2 conjugate or reactive form) [Compound 62] | –
19 | 16.7 | 35 (QXYQXLDELDXTLYDQFMLQQG; AcK; hydroxyproline; K(0P); Anti-angiogenic peptide) [Compound 35] | –
